Measured values: publication PMC6643034

Assays:
[1] = target: P1126 (Amblyomma cajennense); test: BLI; OctetRed; evasin held on a nickel-coated biosensor by its C-terminal His tag; titration with chemokine from 600 to 0.4 nM; noninteracting reference protein; fit R2 ≥0.96, at least five data points
[2] = target: P1142 (Amblyomma cajennense); test: as above
P675 (Ixodes ricinus) = test: as above
P942 (Ixodes ricinus) = test: as above
[3] = target: CXC-motif chemokine ligand 10 (CXCL10) (human) (UniProt P02778)

Chain of CXCL11 (O14625 22-94): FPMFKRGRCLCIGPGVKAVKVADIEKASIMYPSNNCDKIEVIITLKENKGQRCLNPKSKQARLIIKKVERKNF

Substance	Kd [1] [µM]	Kd [2] [µM]	target residence time [2] [min]	Kd (P675 (Ixodes ricinus)) [µM]	Kd (P942 (Ixodes ricinus)) [µM]	neutralization of human CXCL10-induced migration of activated human CD8+ T-cells (Transwell, EC80 dose of CXCL10, EVA3:S5 0.015–1000 nM); mean IC50 of five biological replicates [3] [M]	neutralization of human CXCL8-induced granulocyte migration (Transwell, EC80 dose of CXCL8, EVA3:S5 0.05–200 nM); mean IC50 of four biological replicates (CXCL8 (human)) [M]	neutralization of human CXCL10-induced migration of activated human CD8+ T-cells (Transwell, EC80 dose of CXCL10, P1142 0.015–150 nM); mean IC50 of five biological replicates [3] [M]
CXC-motif chemokine ligand 10 (CXCL10) (from UniProt P02778 22-98)	< 0.01	< 0.01	> 10	> 0.1	> 0.1	–	–	–
CXCL11 (from UniProt O14625 22-94) (ligand)	> 0.3	> 0.3	–	< 0.02	< 0.02	–	–	–
EVA3:S5 (from UniProt P0C8E8 70-86)	–	–	–	–	–	3.11e-08	3.23e-08	–
P1142 (natural protein)	–	–	–	–	–	–	–	1.85e-09
